Source: patent US20210388081A1 (Memorial Sloan Kettering, published 2021)

How the values were obtained:
[1] = biological target: T1, FcRL4, overexpressed on 3T3 cells (UniProt Q96PJ5 20-515, limits assumed); experiment: phage clone on 3T3-FcRL4 cells
T1 construct: whole, on cells
T1 sequence (looked up): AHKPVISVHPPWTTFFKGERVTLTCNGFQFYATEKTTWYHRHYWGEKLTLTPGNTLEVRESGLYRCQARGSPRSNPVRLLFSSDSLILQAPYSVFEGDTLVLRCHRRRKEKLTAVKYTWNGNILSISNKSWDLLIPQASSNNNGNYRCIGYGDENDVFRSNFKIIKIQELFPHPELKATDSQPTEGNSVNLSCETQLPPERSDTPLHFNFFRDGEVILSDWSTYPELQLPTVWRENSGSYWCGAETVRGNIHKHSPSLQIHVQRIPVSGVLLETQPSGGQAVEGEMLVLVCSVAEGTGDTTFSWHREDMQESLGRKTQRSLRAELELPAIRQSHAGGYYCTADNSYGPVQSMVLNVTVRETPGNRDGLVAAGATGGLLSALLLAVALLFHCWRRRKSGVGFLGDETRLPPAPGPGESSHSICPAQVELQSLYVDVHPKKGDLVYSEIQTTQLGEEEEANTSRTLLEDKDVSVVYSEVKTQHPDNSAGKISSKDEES

[2] = biological target: T2, FcRL3, overexpressed on 3T3 cells (UniProt Q96P31 18-734, limits assumed); experiment: phage clone on 3T3-FcRL3 cells
T2 construct: whole, on cells
T2 sequence (looked up): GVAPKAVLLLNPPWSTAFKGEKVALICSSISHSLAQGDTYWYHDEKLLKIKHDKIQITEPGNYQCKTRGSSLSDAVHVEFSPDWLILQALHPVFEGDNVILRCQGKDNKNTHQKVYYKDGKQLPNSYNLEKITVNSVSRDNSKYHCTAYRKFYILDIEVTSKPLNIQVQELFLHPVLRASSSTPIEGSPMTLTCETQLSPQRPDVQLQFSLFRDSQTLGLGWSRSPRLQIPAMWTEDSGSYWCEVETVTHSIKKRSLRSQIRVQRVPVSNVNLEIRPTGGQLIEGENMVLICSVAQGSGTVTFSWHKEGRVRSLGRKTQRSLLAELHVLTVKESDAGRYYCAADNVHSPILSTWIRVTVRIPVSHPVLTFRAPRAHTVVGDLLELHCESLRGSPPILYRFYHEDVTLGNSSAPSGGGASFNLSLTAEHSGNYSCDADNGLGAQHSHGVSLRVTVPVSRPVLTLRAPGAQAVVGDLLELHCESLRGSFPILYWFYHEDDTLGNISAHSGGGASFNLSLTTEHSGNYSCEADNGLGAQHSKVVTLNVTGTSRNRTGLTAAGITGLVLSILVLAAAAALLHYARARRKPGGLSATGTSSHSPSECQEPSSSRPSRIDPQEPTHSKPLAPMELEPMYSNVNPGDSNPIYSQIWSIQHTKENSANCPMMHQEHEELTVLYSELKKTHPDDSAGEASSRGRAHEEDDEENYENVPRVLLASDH

B1: ET200-011 (scFv)
scFv: QSVVTQPPSVSAAPGQRVTISCSGSSSNISIYDVSWYQQLPGTAPKLLIYGNNKRPSGIADRFSGSTSGTSATLGITGLQTGDEADYYCGTWDDSLSGGVFGGGTKLTVLGSRGGGGSGGGGSGGGGSLEMAQMQLVQSGAEVKKPGSSVKVSCEASGGTLSSYAINWVRQAPGQGLEWMGGIIPMFGTAHYAQKFQGRVTITADESTKTAYMELSSLRSEDTAVYYCARGVHYASFDHWGQGTLVTVSSTSGQAGQHHHHHHGAYPYDVPDYAS
notes: screened as phage clone; entry is VL-linker-VH-His tag-HA tag
B1: no binding [1]; no binding [2].

B2: ET200-012 (scFv)
scFv: QSVLTQPPSVSAAAGQKVTISCSGSDSNIGNNYVSWYQHLPGTAPKLLIYDVKNRPSGIPDRFSGSKSGSSATLGIAGLQPGDEADYYCGTWDSRLDAYVFGTGTKVTVLGSRGGGGSGGGGSGGGGSLEMAQMQLVQSGAEVKKPGASVKVSCKTSGFPFNIFGITWVRQAPGQGLEWMGWISGYNGNTDYPQKFQGRVTMSTDTSTSTAYMELRNLKSDDTAVYYCARGAYGGMDTWGQGTLVTVSSTSGQAGQHHHHHHGAYPYDVPDYAS
notes: as for B1
B2: no binding [1]; no binding [2].

B3: ET200-013 (scFv)
scFv: QSVVTQPPSVSGAPGQRVTISCTGSTSNIGAGYDVHWYQQLPGTAPKLLIYTNNFRPSGVPDRFSASKSGTSASLAITGLQAEDEADYYCGTWDSSLSAVVFGGGTKLTVLGSRGGGGSGGGGSGGGGSLEMAEVQLVESGTEVKKPGASVKVSCKASGYMFTSYGLNWVRQAPGQGLEWMGWISANNGKTNYAKKFQDRVTMTRDTSTSTGYMELRSLRSDDTAVYYCARHIGGSYFDRWGQGTLVTVSSTSGQAGQHHHHHHGAYPYDVPDYAS
notes: as for B1
B3: no binding [1]; no binding [2].

B4: ET200-014 (scFv)
scFv: SYVLTQPPSVSVAPGKTARITCGGNNIGSKSVHWYQQKPGQAPVLVIYYDSDRPSGIPERFSGSNSGNTATLTISRVEAGDEADYYCQVWDSSSDHYVFGTGTKVTVLGSRGGGGSGGGGSGGGGSLEMAEVQLVETGGGLVQPGGSLRLSCAASGFTFSSYAMSWVRQAPGKGLEWVSAISGSDGSTYYADSVKGRFTISRDNSKNTLYLQMNSLRDEDTAVYYCARSHEANLVGDWWGQGTLVTVSSTSGQAGQHHHHHHGAYPYDVPDYAS
notes: as for B1
B4: no binding [1]; no binding [2].

B5: ET200-015 (scFv)
scFv: QSVVTQPPSVSVAPGKTARITCGGNNIGSKSVHWYQQKPGQAPVLVIYYDSDRPSGIPERFSGSNSGNTATLTISRVEAGDEADYYCQVWDSSSDVVFGGGTKLTVLGSRGGGGSGGGGSGGGGSLEMAEVQLVQSGAEVKKPGASVKVSCKASGYTFTSYGISWVRQAPGQGLEWMGWISAYNGNTNYAQKLQGRVTMTTDTSTSTAYMELRSLRSDDTAVYYCARWGGFGAVDHWGQGTLVTVSSTSGQAGQHHHHHHGAYPYDVPDYAS
notes: as for B1
B5: no binding [1]; no binding [2].

B6: ET200-016 (scFv)
scFv: SSELTQDPAVSVALGQTVKITCQGDSLTDYHATWYQQKPGQAPVAVIYATNNRPTGIPDRFSGSSSGNTASLTITGAQAEDEADYYCNSRDSGTDEVLFGGGTKLTVLGSRGGGGSGGGGSGGGGSLEMAEVQLVETGGGLVKPGGSLRLSCAASGFTFSSYSMNWVRQAPGKGLEWVSSISSSSSYIYYADSVKGRFTISRDNAKNSLYLQMNSLRAEDTAVYYCARGQGYDYWGQGTLVTVSSTSGQAGQHHHHHHGAYPYDVPDYAS
notes: as for B1
B6: no binding [1]; no binding [2].

B7: ET200-017 (scFv)
scFv: SYVLTQPPSVSVAPGKTARITCGGNNIGSKSVHWYQQKPGQAPVLVVYDDSDRPSGIPERFSGSNSGNTATLSISRVEAGDEADYYCQVWDSSSDHTVFGTGTKVTVLGSRGGGGSGGGGSGGGGSLEMAQVQLQQWGAGLLKPSETLSLTCAVYGGSFSGYYWSWIRQPPGKGLEWIGEINHSGSTNYNPSLKSRVTISVDTSKNQFSLKLSSVTAADTAVYYCARYYPGMDMWGQGTLVTVSSTSGQAGQHHHHHHGAYPYDVPDYAS
notes: as for B1
B7: no binding [1]; no binding [2].

B8: ET200-018 (scFv)
scFv: QAVLTQPPSTSGTPGQRVTISCSGSSSNIGRNGVNWYQQLPGAAPKVLIYNDNQRPSGVPDRVSGSQSGSSGTLAIDGLRSEDEADYYCAAWDDSLHGVVFGGGTKLTVLGSRGGGGSGGGGSGGGGSLEMAQVQLVQSGAEVKKPGASVKVSCKVSGYTLNELSMHWVRQAPGKGLEWMGGFDPEDGETIYAQKFQGRVTMTEDTSTDTAYMELSSLRSEDTAVYYCARGGYGDSWGQGTLVTVSSTSGQAGQHHHHHHGAYPYDVPDYAS
notes: as for B1
B8: no binding [1]; no binding [2].

B9: ET200-019 (scFv)
scFv: NFMLTQPHSVSESPGKTVTISCTRSSGSIASNYVQWYQQRPGSAPTTVIYEDNQRPSGVPDRFSGSIDSSSNSASLTISGLKTEDEADYYCQSYDSSNSWVFGGGTKLTVLGSRGGGGSGGGGSGGGGSLEMAQVQLVQSGAEVKRPGSSVKVSCTASGGTFSSDAISWVRQAPGQGLEWMGGIIPMFGTANYAQKFQGRVTITADESTSTAYMELSSLRSEDTAVYYCAREGYYYPSAYLGSVLNDISSVYDEWGQGTLVTVSSTSGQAGQHHHHHHGAYPYDVPDYAS
notes: as for B1
B9: no binding [1]; no binding [2].

B10: ET200-020 (scFv)
scFv: QSVVTQPPSVSAAPGQKVTISCSGSTSNIGNNDVSWYQQLPGTAPKLLIYDNNKRPSGIPDRFSGSKSGTSATLGITGLQTGDEADYYCGTWDSSVSASWVFGRGTKLTVLGSRGGGGSGGGGSGGGGSLEMAQVQLVQSGAEVKKPGASVKVSCKASGYTFTSYGISWVRQAPGQGLEWMGWISAYNGNTNYPQKLQGRVTMTTDPSTSTAYMELRSLRSDDTAVYYCARSMTSFDYWGQGTLVTVSSTSGQAGQHHHHHHGAYPYDVPDYAS
notes: as for B1
B10: no binding [1]; no binding [2].

B11: ET200-021 (scFv)
scFv: QSVLTQPPSVSAAPGQKVTISCSGSNSNIGNNYVSWYQQLPGTAPKLLIYDNNKRPSGIPDRFSGSRSGTSATLGITGLQTGDEADYYCGTWNTTVTPGYVFGTGTKVTVLGSRGGGGSGGGGSGGGGSLEMAEVQLVQSGAEVKKPGASVKVSCKASGYTFTSYGISWVRQAPGQGLEWMGWISAYNGNTNYAQKLQGRVTMTTDTSTSTAYMELRSLRSDDTAMYYCARSVYDLDTWGQGTLVTVSSTSGQAGQHHHHHHGAYPYDVPDYAS
notes: as for B1
B11: no binding [1]; no binding [2].

B12: ET200-022 (scFv)
scFv: QSVVTQPPSVSAAPGQKVTISCSGSSSNIGNNYVSWYQQLPGTAPKLLIYDNNKRPSGIPDRFSGSKSGTSATLGITGLQTGDEADYYCGTWDSSLGAPYVFGTGTKVTVLGSRGGGGSGGGGSGGGGSLEMAEVQLVQSWGGSEQPGRSLRLSCAASGFTFDDYAMHWVRQAPGKGLEWVSGISWNSGSIGYADSVKGRFTISRDNAKNSLYLQMNSLRAEDTAMYYCARYRQVGSAYDSWGQGTLVTVSSTSGQAGQHHHHHHGAYPYDVPDYAS
notes: as for B1
B12: no binding [1]; no binding [2].

B13: ET200-023 (scFv)
scFv: LPVLTQPPSVSVAPGKTARITCGGNNIGSKSVHWYQQKPGQAPVLVVYADSDRPSGIPERFSGSNSGNTATLTISRVEAGDEADYYCQVWDSSSYHNYVFGTGTKVTVLGSRGGGGSGGGGSGGGGSLEMAEVQLVQSGAEVKKPGASVKVSCKASGYTFTSYGISWVRQAPGQGLEWMGWISAYNGNTNYAQKLQGRVTMTTDTSTSTAYMELSSLRSEDTAMYYCARYWGFGVSDRWGQGTLVTVSSTSGQAGQHHHHHHGAYPYDVPDYAS
notes: as for B1
B13: no binding [1]; no binding [2].

B14: ET200-039 (scFv)
scFv: NFMLTQPHSVSESPGKTVTISCTRSSGSIASNYVQWYQQRPGSSPTTVIYEDNQRPSGVPDRFSGSIDSSSNSASLTISGLKTEDEADYYCQSYDSSNWVFGGGTKLTVLGSRGGGGSGGGGSGGGGSLEMAEVQLVQSGAEVKKPGSSVKVSCKASGGTFSSYAISWVRQAPGQGLEWMGGIIPIFGTANYAQKFQGRVTITADESTSTAYMELSSLRSEDTAVYYCARSNYYYNDYWGQGTLVTVSSTSGQAGQHHHHHHGAYPYDVPDYAS
notes: screened as phage clone; entry is VL-linker-VH-His tag-HA tag; also called ET200-39
B14: no binding [1]; no binding [2].
